Laboratory results from patent US20220098315A1 (Novartis, published 2022).

Legend:
[1] = target: recombinant human CD40 (human) (UniProt P25942); assay: SPR (Biacore T100), antibody captured on Protein A, CD40 antigen as analyte, 25 C, 1:1 model
[2] = target: human CD40 on cells (human, UniProt P25942 21-277); assay: cell-based or functional assay
Chain of human CD40 on cells (P25942 21-277 limits assumed): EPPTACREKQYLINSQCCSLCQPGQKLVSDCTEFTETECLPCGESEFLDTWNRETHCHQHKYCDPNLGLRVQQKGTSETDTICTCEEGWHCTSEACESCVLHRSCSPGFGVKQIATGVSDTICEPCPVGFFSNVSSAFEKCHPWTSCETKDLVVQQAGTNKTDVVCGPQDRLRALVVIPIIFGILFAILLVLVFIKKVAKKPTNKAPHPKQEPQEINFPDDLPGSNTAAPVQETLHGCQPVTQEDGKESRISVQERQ

Chain of recombinant human CD40 (human) (P25942 21-193 limits assumed): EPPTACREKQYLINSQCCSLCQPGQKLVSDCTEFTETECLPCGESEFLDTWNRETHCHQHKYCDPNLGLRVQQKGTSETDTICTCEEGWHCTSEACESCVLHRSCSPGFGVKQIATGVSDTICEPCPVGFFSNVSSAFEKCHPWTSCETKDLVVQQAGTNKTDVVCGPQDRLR

Q: Which Kd [1] does the source give for HCD122 (antibody) here?
A: 0.467 nM

Q: What about the koff [1] of the same molecule?
A: 0.000126 s⁻¹

Q: What about the kon [1] of the same molecule?
A: 284000 M⁻¹ s⁻¹

B1: CFZ533 (antibody, human IgG1, kappa, N297A, V domains shown)
VH: QVQLVESGGGVVQPGRSLRLSCAASGFTFSSYGMHWVRQAPGKGLEWVAVISYEESNRYHADSVKGRFTISRDNSKITLYLQMNSLRTEDTAVYYCARDGGIAAPGPDYWGQGTLVTVSS
VL: DIVMTQSPLSLTVTPGEPASISCRSSQSLLYSNGYNYLDWYLQKPGQSPQVLISLGSNRASGVPDRFSGSGSGTDFTLKISRVEAEDVGVYYCMQARQTPFTFGPGTKVDIRR
Q: For B1, which “IC50, rCD154-induced proliferation of human PBMCs” value [2] is on record?
A: 0.12 nM
